Results from article PMC11291072 (bioRxiv, 2024).

Target: T1, ERK2-phosphorylated human PPARγ2 AF-1 domain (pS112 + pT75), residues 1-136 (human, UniProt P37231-1 1-136)
T1 sequence: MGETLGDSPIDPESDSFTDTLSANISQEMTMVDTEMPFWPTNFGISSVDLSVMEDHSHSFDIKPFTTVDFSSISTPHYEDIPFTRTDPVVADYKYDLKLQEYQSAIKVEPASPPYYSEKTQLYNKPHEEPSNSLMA
Assay: NMR titration

B1: Pin1 PPIase domain (residues 42-163) (domain or fragment)
chain: SSGGKNGQGEPARVRCSHLLVKHSQSRRPSSWRQEKITRTKEEALELINGYIQKIKSGEEDFESLASQFSDCSSAKARGDLGAFSRGQMQKPFEDASFALRTGEMSGPVFTDSGIHIILRTE
B1: binds.
